Reference: patent US20090280138A1 (OXFORD BIOMEDICA UK, published 2009)

B1: 5T4 9-mer peptide 48 NLFLTGNQL (peptide)
peptide: NLFLTGNQL
B2: 5T4 9-mer peptide 49 FLTGNQLAV (peptide)
peptide: FLTGNQLAV
B3: 5T4 9-mer peptide 50 TGNQLAVLP (peptide)
peptide: TGNQLAVLP
B4: 5T4 9-mer peptide 51 NQLAVLPAG (peptide)
peptide: NQLAVLPAG
B5: 5T4 9-mer peptide 52 LAVLPAGAF (peptide)
peptide: LAVLPAGAF
B6: 5T4 9-mer peptide 53 VLPAGAFAR (peptide)
peptide: VLPAGAFAR
B7: 5T4 9-mer peptide 54 PAGAFARRP (peptide)
peptide: PAGAFARRP
B8: 5T4 9-mer peptide 55 GAFARRPPL (peptide)
peptide: GAFARRPPL
B9: 5T4 9-mer peptide 56 FARRPPLAE (peptide)
peptide: FARRPPLAE
B10: 5T4 9-mer peptide 57 RRPPLAELA (peptide)
peptide: RRPPLAELA
B11: 5T4 9-mer peptide 58 PPLAELAAL (peptide)
peptide: PPLAELAAL
B12: 5T4 9-mer peptide 59 LAELAALNL (peptide)
peptide: LAELAALNL
B13: 5T4 9-mer peptide 60 ELAALNLSG (peptide)
peptide: ELAALNLSG
B14: 5T4 9-mer peptide 61 AALNLSGSR (peptide)
peptide: AALNLSGSR
B15: 5T4 9-mer peptide 62 LNLSGSRLD (peptide)
peptide: LNLSGSRLD
B16: 5T4 9-mer peptide 63 LSGSRLDEV (peptide)
peptide: LSGSRLDEV
B17: 5T4 9-mer peptide 64 GSRLDEVRA (peptide)
peptide: GSRLDEVRA
B18: 5T4 9-mer peptide 65 RLDEVRAGA (peptide)
peptide: RLDEVRAGA
B19: 5T4 9-mer peptide 66 DEVRAGAFE (peptide)
peptide: DEVRAGAFE
B20: 5T4 9-mer peptide 67 VRAGAFEHL (peptide)
peptide: VRAGAFEHL
B21: 5T4 9-mer peptide 68 AGAFEHLPS (peptide)
peptide: AGAFEHLPS
B22: 5T4 9-mer peptide 69 AFEHLPSLR (peptide)
peptide: AFEHLPSLR
B23: 5T4 9-mer peptide 70 EHLPSLRQL (peptide)
peptide: EHLPSLRQL
B24: 5T4 9-mer peptide 71 LPSLRQLDL (peptide)
peptide: LPSLRQLDL
B25: 5T4 9-mer peptide 117 LPSLRHLDL (peptide)
peptide: LPSLRHLDL
B26: 5T4 9-mer peptide 72 SLRQLDLSH (peptide)
peptide: SLRQLDLSH
B27: 5T4 9-mer peptide 73 RQLDLSHNP (peptide)
peptide: RQLDLSHNP
B28: 5T4 9-mer peptide 74 LDLSHNPLA (peptide)
peptide: LDLSHNPLA
B29: 5T4 9-mer peptide 75 LSHNPLADL (peptide)
peptide: LSHNPLADL
B30: 5T4 9-mer peptide 76 HNPLADLSP (peptide)
peptide: HNPLADLSP
B31: 5T4 9-mer peptide 77 PLADLSPFA (peptide)
peptide: PLADLSPFA
B32: 5T4 9-mer peptide 78 ADLSPFAFS (peptide)
peptide: ADLSPFAFS
B33: 5T4 9-mer peptide 79 LSPFAFSGS (peptide)
peptide: LSPFAFSGS
B34: 5T4 9-mer peptide 80 PFAFSGSNA (peptide)
peptide: PFAFSGSNA
B35: 5T4 9-mer peptide 81 AFSGSNASV (peptide)
peptide: AFSGSNASV
B36: 5T4 9-mer peptide 82 SGSNASVSA (peptide)
peptide: SGSNASVSA
B37: 5T4 9-mer peptide 83 SNASVSAPS (peptide)
peptide: SNASVSAPS
B38: 5T4 9-mer peptide 84 ASVSAPSPL (peptide)
peptide: ASVSAPSPL
B39: 5T4 9-mer peptide 85 VSAPSPLVE (peptide)
peptide: VSAPSPLVE
B40: 5T4 9-mer peptide 86 APSPLVELI (peptide)
peptide: APSPLVELI
B41: 5T4 9-mer peptide 87 SPLVELILN (peptide)
peptide: SPLVELILN
B42: 5T4 9-mer peptide 88 LVELILNHI (peptide)
peptide: LVELILNHI
B43: 5T4 9-mer peptide 89 ELILNHIVP (peptide)
peptide: ELILNHIVP
B44: 5T4 9-mer peptide 90 ILNHIVPPE (peptide)
peptide: ILNHIVPPE
B45: 5T4 9-mer peptide 91 NHIVPPEDE (peptide)
peptide: NHIVPPEDE
B46: 5T4 9-mer peptide 92 IVPPEDERQ (peptide)
peptide: IVPPEDERQ

Target: T1, MHC class I molecule A*0101 (biotin (bound to streptavidin-coated plate))
T1 construct: also called A1; HLA-A1
Experiment: iTopia iScore
Description: (§1) The 9 mers were tested for Peptide Binding, Off Rate and Affinity using iTopia Epitope Discovery System in accordance with the manufacturer's instructions. Briefly, 96 well microtitre plates coated with MHC molecules representing different MHC alleles are used to identify candidate peptides. […] Determinations are performed in duplicate using an ELISA plate reader and included allele specific positive controls.
(§2) Finally, multiparametric analysis is performed on the results from these assays and an iScore is generated. The iScore represents a measure of the overall quality of peptide-MHC binding, enabling candidate peptides to be ranked in order of binding quality and allowing rational prioritisation of peptides for functional cellular follow-up studies.

Binder	iScore
B1	0
B2	0
B3	0
B4	0
B5	0
B6	0
B7	0
B8	0
B9	0
B10	0
B11	0
B12	0
B13	0
B14	0
B15	0
B16	0
B17	0
B18	0
B19	0
B20	0
B21	0
B22	0
B23	0

Binder	iScore
B24	0
B25	0
B26	0
B27	0
B28	0
B29	0
B30	0
B31	0
B32	0
B33	0
B34	0
B35	0
B36	0
B37	0
B38	0
B39	0
B40	0
B41	0
B42	0
B43	0
B44	0
B45	0
B46	0

Target: T2, MHC class I molecule A*0201 (biotin (bound to streptavidin-coated plate))
T2 construct: also called A2; HLA-A2
Experiment: iTopia iScore
Description: as §1, §2

Binder	iScore
B1	0.107
B2	0.791
B3	0.044
B4	0.22
B5	0.074
B6	0.081
B7	0
B8	0.222
B9	0.042
B10	0
B11	0.075
B12	0.72
B13	0.075
B14	0
B15	0
B16	0.075
B17	0.13
B18	0.422
B19	0
B20	0
B21	0
B22	0
B23	0.046

Binder	iScore
B24	0.098
B25	0.028
B26	0
B27	0
B28	0.226
B29	0.095
B30	0
B31	0.556
B32	0.116
B33	0.064
B34	0
B35	0.116
B36	0
B37	0.154
B38	0.059
B39	0
B40	0
B41	0.094
B42	0.109
B43	0.067
B44	0.426
B45	0
B46	0

Target: T3, MHC class I molecule A*0301 (biotin (bound to streptavidin-coated plate))
T3 construct: also called A3; HLA-A3
Experiment: iTopia iScore
Description: as §1, §2

Binder	iScore
B1	0
B2	0
B3	0
B4	0
B5	0
B6	0.027
B7	0
B8	0
B9	0
B10	0
B11	0
B12	0
B13	0
B14	0
B15	0
B16	0
B17	0
B18	0.057
B19	0
B20	0
B21	0
B22	0
B23	0

Binder	iScore
B24	0
B25	0
B26	0
B27	0
B28	0
B29	0
B30	0
B31	0
B32	0
B33	0
B34	0
B35	0
B36	0
B37	0
B38	0
B39	0
B40	0
B41	0
B42	0
B43	0
B44	0
B45	0
B46	0

Target: T4, MHC class I molecule B*0702 (biotin (bound to streptavidin-coated plate))
T4 construct: also called B7; HLA-B7
Experiment: iTopia iScore
Description: as §1, §2

Binder	iScore
B1	0
B2	0
B3	0
B4	0
B5	0.049
B6	0
B7	0
B8	0.359
B9	0
B10	0
B11	0.145
B12	0.074
B13	0
B14	0
B15	0
B16	0.107
B17	0
B18	0.032
B19	0
B20	0.085
B21	0
B22	0
B23	0

Binder	iScore
B24	0.454
B25	0.445
B26	0
B27	0
B28	0
B29	0
B30	0
B31	0
B32	0
B33	0
B34	0
B35	0
B36	0
B37	0
B38	0.017
B39	0
B40	0.101
B41	0
B42	0
B43	0
B44	0
B45	0
B46	0
